These results are taken from the nanobody polyreactivity screen of Harvey et al. (2022).

This series is described as follows: yeast display, Sf9 membrane polyspecificity reagent, FACS + sequencing; frameworks hold sequencing errors. The method in brief: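 Genes from sorted yeast were amplified by colony PCR, read by MiSeq 2 × 250 sequencing and filtered on CDR length. These cells carried a synthetic nanobody library in Saccharomyces cerevisiae BJ5465 and were sorted by FACS into low and high (top ~1%) gates on anti-HA and streptavidin fluorescence. Polyreactivity is labelled according to the gate of origin.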
For the sequence “QVQLVESGGGLVQAGGSLRLSCAASGSIFQRYTMGWYRQAPGKERELVARISGRGGSTYYADSVKGRFTISRDNAKNTVYLQMNSMKPEDTAVYYCAADTGRYLDSNYWGQGTQVTVSS”, the “polyreactivity (PSR sort gate)” value is given as “high polyreactivity”. The same measure for “QVQLVESGGGLVQAGGSLRLSCAASGNTFIDYAMGWYRQAPGKETELVAAITRGGRTNYADSVKGRFTISRDNAKNTVYLQMNSLKPEDTAVYYCAAALRRRRADFDYWGQGTQVTVSS”: “high polyreactivity”. The same measure for “QVQLGESGGGLVQAGGSLRLSCAASGSIFGYYAMGWYRQAPGKERELVAAINYSGVSTYYADSVKGRFTISRDNAKNTVYLQMNSLKPEDTAVYYCAALRLYEPGPYGGPLRYGYWGQGTQVTVSS”: “high polyreactivity”; for “HVPLVESGGGLVQAGGSLRLSCAASGSIFVWYVMGWYRQAPGKEWELVAAITWSAARTYYADSVKGRFTISRDNAKITVYLQMNSLKPEDTAVYYGAADPVSYQPSSRIFDYWGQATQVTVSS”: “low polyreactivity”; for “QVQLVESGGGLVQAGGSLRLSCAASGRTFWWNAMGWYRQAPGKERELVAVISYSGGSTYYADSVKGRFTISRDNAKNTVYLQMNSLKPEDTAVYYCAAEAYTYWDTIYDYLGQGTQVTVSS”: “high polyreactivity”. With “QVQLVESGGGLVQAGGSLRLSCAASGSIFIGNTMGWYRPAPGNERELVATIRRSGSRTYYADSVKGRFTISRDNAKNTVYLQMNSLKPEDTAVYYCAADRLRTSGYKTIYDYWGQGTQVTVSS”, the “polyreactivity (PSR sort gate)” value was “low polyreactivity”. The same measure for “QVQLVESGGGLVQAGGSLRLSCAASGRTFYLYTMGWYRQAPGKERELVAAITGGGRTYYADSVKGRFTISRDNAKNTVYLQMNSLKPEDTAVYYCNADYAYYSYDYWGQGTQVTVSS”: “low polyreactivity”. Next, “QVQLVESGGGLVQAGGSLRLSCAASGSILAYNAMGWYRQAPGKERELVAAISWTGRTYYADSVKGRFTISRDNAKNTVYLQMNSLKPEDTAVYYCNARGRQRSRGSQIYDYWGQGSQVTVSS”: “high polyreactivity”.

As to “QVQLVESGGGLVQAGGSLRLSCAASGYTFTGYAMGGYRQAPGKERECVAGITWRTGRTYYADSVKGRFTISRDNAKNTGYLQMNSLIPEDTAVYYCNKDHQRGYYWSYDYWGQGTQVTVSS”, the “polyreactivity (PSR sort gate)” value is reported as “low polyreactivity”. Next, “QVQLVESGGGLVQAGGSLRLSCAASGNTFAGNAMGWYRLAPGKERELVAAISYSGGSTYYADSVKGRFTISRDNAKNNVYLQMNSLKPEDTAVYYCNAPQPGNGRTRSRYYYWGQGTQVTVSS”: “high polyreactivity”. The same measure for “QVQLVEAGGGLVQAGVSLRLSCAASGSIFGYNAMGWYRQAPGKERELVAAISRRGTRTYYADSVKGRFTISRDTAKNTVYLQMNSLKPEDTAVYYCNASPSLDYDYWGQGTQVTVSS”: “high polyreactivity”; for “QVQLVESGGGLVQAGGSLRLICAASGFTFVANAMGWYRQAPGKERELVAVIDWDDGSTYYADSVKGRFTISRDNAKNTVYLQMYSLKPEDTAVYYCARDVYASPRLYTSRYNYWGQGTQVTVSS”: “low polyreactivity”. The same measure for “QVQLVESGGGLVQAGGSLRLSCAASGRTFPYYAMGWYRQAPGKERELVAAISSSGGSTYYADSVKGRFTISRDNAKNTVYLQMNSLKPEDTEVYYCAAVYQFIKWGDRYEYWGQGTQVTVSS”: “high polyreactivity”; for “QVQLVESGGGLVQAGGSLRLSCAASGSIFEWYAMGLYRQAPGKETELVAAISSGGRTYYADSVKGRFTISRDNAKNTVYLQMNSLKPEDTAVYYCAGRDVDHVGGSKYYYWGQGTQVTVSS”: “high polyreactivity”; for “QVQLVESGGGLVQAGGSLRLSCAASGSTFDVNTMGWYRQAPGKERELVAAISSSGGDTYYADSVKGRFTISRDNAKNTVYLQMNSLKPDDTAVYYCAARLGFYTYGYTSWYTVYYWGQGTQVTVSS”: “low polyreactivity”.

As to “QVQLVESGGGLVQAGGSLRLSCAASGRIVGRYAMGWYRQAPGKERELVAAISWSGGSTYYADSVKGRFTISRDNAKNTVYLQKNSLKPEDTAGYYCAADYDSYFRLYNYWGQGTQVTVSS”, the “polyreactivity (PSR sort gate)” value is “high polyreactivity”. Next, “QVQLVESGGGLVQAGGSLRLSCAASGRIFGYYAMGWYRQAPGKERELVAAISTRGTSTYYADSVKGRFTISRDNAKNTVYLQMNSLKPEDTAVYYCARGFPPYRGTHMNYWGQGTQVTVSS”: “high polyreactivity”. Next, “QVQLVESGGGLVQAGGSLRLSCAASGSISWAYVMGWYRQAPGKERELVAAISSGTSTYYADSVKGRFTLSRDNAKKTVYLQMNSLKPEDTAVYYCAAYYYSYPTNGGYGYWGQGTQVTVSS”: “low polyreactivity”. Take “QVQLVESGGGLVQAGGSLRLSCAASGSILFYNAMGWYRQAPGKERELVAAISSGGSTYYADSVKGRFTISRDNAKNTVYLQMNSLKPEDTAVYNCAARRRYSSVYYYYTTRRGYWGQGTQVTVSS”: the “polyreactivity (PSR sort gate)” value is reported as “high polyreactivity”. In the case of “QVQLVESGGGLVQAGGSLRLSCAASGRIFLIYTMGWYRQAPGKERELVASITFRSGSTYYADSVKGRFTISRDNAKNTVYLQMNSLKPEDTAVYYCAADRGVLNQFDYWGQGTQVTVSS”, the “polyreactivity (PSR sort gate)” value is given as “low polyreactivity”. The same measure for “QVQLVESGGGLVQAGGSLRLSCAASGSIFSTYAMGWYRQAPGKERELVAAITSDGTYADSVKGRFTISRDNAKNTVYLQLNSLKPEDTAVYYCNKDIKSATDSYHYEDDYWGQGTQVTVSS”: “low polyreactivity”; for “QVQLVESGGGLVQAGGSLRLSCAASGGTFWTNAMGWYRQAPGKERELVARITSGGGTNYADSVKGRFTISRDNAKNTVYVQMNSRKPEDTAVYYCAAETIYYPVAQSYYSFEYWGQGTQVTVSS”: “low polyreactivity”. The same measure for “QVQLVESGGGLVQAGGSLRLSCAASGIILRGYVIGWYRQAPGQERELVAAISTSGGRTYYADSVKGRFTISRDNAKNTVYLQMNSLKQEDTAVYYCAAVSSRLWLYDYWGQGTQVTVSS”: “high polyreactivity”. In the case of “QDHHVESGGGLVQAGGSLRLICAASGSTFSWNTMGWYRPAPGKERDLVAAISWSTGRTYYADSVKGRFTISRDNAKNTVYLQMISLKPEDTAVYYCAARRFVTDGTRREYDYWGQGTQVTVSS”, the “polyreactivity (PSR sort gate)” value is “high polyreactivity”. On to “QFQLVESGGGLVQAGGSLRLSCAASGIIFAGNAMGWYRQAPGKERELVAVITSVGSTYYADSVTGRFTISRDNAKNTVYLQMNSLKPEDTAVYYCNAVSWWRYDYCGQGTQVTVSS”, for which the “polyreactivity (PSR sort gate)” value was “high polyreactivity”. Next, “QVQLVESGGGLVQAGGSLRLSCAASGSIFNYNMGWYRQAPGKERELVAAVSTNYADSVKGRFTISRDNAKNTVYLQMNSLKPEDTAVYYCGVTPEKSGDEYDYWGQGTQVTVSS”: “low polyreactivity”; “QVQLVDSGGGLVQAGGSLRLSCAASGSIFAYYTIGWYRQAPRKERELVAAITSGGSTNYADSVKGRFTISRDNAKNTVYLQMNSLKPEDTAVYYCAVQGSRYSYRYGYRFRTMDYWGQGTQVTVSS”: “high polyreactivity”.

For the sequence “QVQLVESGGGLVQAGGSLRLSCAASGIIFYTYVMGWYRQAPGKEREFVAGISTSGGRTDYADSVKGRFTISRDNAKNTVYLQMNSLKPEDTAVYYCNKLYRYPRYYYWGQGTQVTVSS”, the “polyreactivity (PSR sort gate)” value is “high polyreactivity”. The same measure for “QVQLVESGGGLVQAGGSLRLSCAASGRIFAFNAMGWYRQAPGTESELVAAINWSGTTTYYADSVKGRFTISRDNAKNTVYLQMNSLKPEDTAVYYCAADVTFRGYAKYYYWGQGTQVTVSS”: “low polyreactivity”. Take “QVQLVESGGALVQAGGSLRLSCAASGSTFGRYAMGWYRQAPGKERELVATIRSGGSTTYADSVKGRFTISRDNAKNTVYLQMNSLKREDTAVYYCAAGTKPSYYYWGQGTQVTVSS”: the “polyreactivity (PSR sort gate)” value is on record as “low polyreactivity”.
